doi:10.1101/509869 (bioRxiv, 2019)

B1: TEX12 (human, amino acids 1-123, full length) (natural protein, UniProt Q9BXU0 1-123, looked up)
chain: MMANHLVKPDNRNCKRPRELESPVPDSPQLSSLGKSDSSFSEISGLFYKDEALEKDLNDVSKEINLMLSTYAKLLSERAAVDASYIDEIDELFKEANAIENFLIQKREFLRQRFTVIANTLHR
B2: TEX12core (human TEX12, amino acids 49-123) (domain or fragment, UniProt Q9BXU0 49-123, looked up)
chain: KDEALEKDLNDVSKEINLMLSTYAKLLSERAAVDASYIDEIDELFKEANAIENFLIQKREFLRQRFTVIANTLHR

Biological target: the molecule itself
Experiment: SEC-MALS

Protein	stoichiometry N
B1	2
B2	2
